Article PMC11125907, “A Portable Readout System for Biomarker Detection with Aptamer-Modified CMOS ISFET Array”

Molecular target: cardiac troponin I (cTnI) (human, UniProt P19429 2-210)
Assay: ISFET aptasensor; 1 mM Mg2+; AC mode 2.4 V, 10 kHz 0.1 Vp-p; LoD 3.27 ng/mL, linear range 3.27-625 ng/mL (no Kd); 10 mM Tris-HCl pH 7.7, 8 mM NaCl, 1 mM MgCl2; temperature not stated
Conditions: protein: recombinant

cardiac troponin I (cTnI), sequence (P19429 2-210): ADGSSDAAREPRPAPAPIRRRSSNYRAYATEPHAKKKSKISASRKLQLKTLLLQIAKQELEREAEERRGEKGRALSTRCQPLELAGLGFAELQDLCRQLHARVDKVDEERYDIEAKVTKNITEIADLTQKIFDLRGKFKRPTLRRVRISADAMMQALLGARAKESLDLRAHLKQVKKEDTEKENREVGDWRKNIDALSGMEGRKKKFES

## CGCATGCCAAACGTTGCCTCATAGTTCCCTCCCCGTGTCC (ssDNA, 5'-SH (thiol)) [Tro6]
  binding result: binds
